This note sets out measurements from paper PMC9518701.

The target of one experiment is FcγRIIa (H131). The experiment can be described thus: SPR. In general terms: SPR reads the build-up and loss of mass on a sensor chip optically.
A further experiment concerns the target FcγRI. The experiment can be described thus: SPR.
For another experiment, the target named is FcγRIIIa (F158). Description: SPR.
The target of the next experiment is FcγRIIb. Description: SPR.
The target of the next experiment is FcγRIIa (R131). The experiment can be described thus: SPR.
The target of a further experiment is FcγRIIIa (V158). The experiment can be described thus: SPR.
Experiment [1] addresses human neonatal Fc receptor (FcRn) (human) (UniProt P55899). Description: SPR; pH 6.0.
In experiment [2] the target is SARS-CoV-2 spike protein receptor binding domain (RBD) (SARS-CoV-2, wild type (Wuhan-Hu-1 reference)) (UniProt P0DTC2). Description: SPR.
The target is the same in experiment [3].
Experiment [4] concerns the target SARS-CoV-2 spike protein receptor binding domain (RBD) (SARS-CoV-2) (UniProt P0DTC2).
Experiment [5] shares this target. This is another data set of the same source.
Experiment [6] has the same target. This is another data set of the same source.

Like-named read-outs stand apart in the source and are kept apart here.

Chain of human neonatal Fc receptor (FcRn) (human) (P55899 24-297, chain 1 of 2): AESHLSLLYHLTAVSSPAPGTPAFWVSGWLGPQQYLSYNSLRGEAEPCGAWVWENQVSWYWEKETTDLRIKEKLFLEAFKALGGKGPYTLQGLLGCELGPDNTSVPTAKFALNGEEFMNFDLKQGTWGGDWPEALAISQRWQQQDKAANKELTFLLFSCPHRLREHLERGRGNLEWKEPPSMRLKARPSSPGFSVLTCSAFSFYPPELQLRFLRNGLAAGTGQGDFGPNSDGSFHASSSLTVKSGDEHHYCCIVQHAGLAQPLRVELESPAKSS
Chain of human neonatal Fc receptor (FcRn) (human) (partner, as listed by the source, chain 2 of 2): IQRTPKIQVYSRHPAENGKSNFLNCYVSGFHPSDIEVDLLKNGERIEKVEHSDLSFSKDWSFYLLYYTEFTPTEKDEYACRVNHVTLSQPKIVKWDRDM

What is called Kd is the concentration at which binding is half-saturated. As for romlusevimab (BRII-198), the Kd is 13200 nM with FcγRIIa (H131); 2.77 nM with FcγRI; 4450 nM with FcγRIIIa (F158); 35300 nM with FcγRIIb; 23700 nM with FcγRIIa (R131); 731 nM with FcγRIIIa (V158). The same substance registered a Kd in [1] of 0.36 nM.
With amubarvimab (BRII-196) (antibody), the Kd in experiment [2] was determined as 5.88 nM. In experiment [3], the other turned out to be 0.026 µg/mL.
For orientation: IC50 means the point on the concentration scale where inhibition reaches its midpoint. High values mean weaker potency in that assay, low ones greater potency in that assay. Regarding “combination of amubarvimab and romlusevimab”, in [4], the half-maximal inhibitory concentration (IC50) is 16.4 nM. Moreover, the other was 0.16 µg/mL in [5] and 0.047 µg/mL in experiment [6].
